# Assay results taken from patent US20220362394A1, “ANTI-BCMA ANTIBODY CONJUGATES” (SUTRO BIOPHARMA, INC., priority 2019, published 2022).
# Residue numbers refer to the chain shown, from its start.
# T1: human BCMA-Fc (Homo sapiens, UniProt Q02223)
# T1 construct: purchased R&D Systems
# T1 sequence (Q02223 1-54 limits assumed): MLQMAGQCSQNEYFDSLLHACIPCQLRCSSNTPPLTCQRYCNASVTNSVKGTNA
# B1: 11D6: chicken antibody, VH SEQ ID NO 198, VL SEQ ID NO 220 (antibody, V domains shown)
# VH: AVTLDESGGGLQTPGGTLSLVCKASGFTFSSFNMFWVRQAPGEGLEWVAYIRNDGRSTSYGPAVKGRATISRDNGQSTVRLQLNNLRAEDTGTYFCAKTTCVGSGGCIDTWGHGTEVIVSS
# VL: ALTQPSSVSANPGETVEITCSGGNSDYGWFQQKSPGSAPVTVIYRNNQRPSDIPSRFSGSGSGSTNTLTITGVQAEDEAIYYCGNVDFTDDVFGAGTTLTVL
# modifications: Synthetic 11D6, VH; Synthetic 11D6, VL
# B2: 9A8: chicken antibody, VH SEQ ID NO 196, VL SEQ ID NO 218 (antibody, V domains shown)
# VH: B1 VH with E43K, R56N, T58A, G92A, F95Y, V102I
# VL: B1 VL with E17K, N24S, R45S, D52G, G61K, N66G, G84A, F88Y
# modifications: Synthetic 9A8, VH; Synthetic 9A8, VL
# B3: 10G5: chicken antibody, VH SEQ ID NO 197, VL SEQ ID NO 219 (antibody, V domains shown)
# VH: B1 VH with T17V, E43K, R52S, R56S, G92A, V102I
# VL: B1 VL with E17K, S25Y, F30Y, V42L, R45Y, Q48K, G61K, N66G, G84A, F88S
# modifications: Synthetic 10G5, VH; Synthetic 10G5, VL
# B4: 10F4: chicken antibody, VH SEQ ID NO 203, VL SEQ ID NO 225 (antibody, V domains shown)
# VH: AVTLDESGGGLQTPGGALSLVCKASGFTFSGYNMGWVRQAPGKGLEYVAGITYGTGSYTAYGAAVKGRATISRDNGQSTLRLQLNNLRAEDTATYYCARGGGLNSYGCSGANIDAWGHGTEVIVSS
# VL: ALTQPSSVSANLGGTVKITCSGGGNYFGSYYYGWYQQKAPGSAPVTVIYNNNNRPSDIPSRFSGSTSGSTSTLTISGVRAEDEAVYFCGGFDSSTDAIFGAGTTLTVL
# modifications: Synthetic 10F4, VH; Synthetic 10F4, VL
# B5: 9H1: chicken antibody, VH SEQ ID NO 210, VL SEQ ID NO 232 (antibody, V domains shown)
# VH: AVTLDESGGGLQTPGGALSLVCKGSGFTFSDYGMGWMRQAPGKGLQYVARINSAGSDTNYGSAVKGRATISRDDGQSTVRLQLSSLRAEDTGIYYCTRGGGGASIDGWGHGTEVIVSS
# VL: B4 VL with L12P, G14E, N25S, F27Y, A39S, V47L, S71G, S76T, F87Y, G90S
# modifications: Synthetic 9H1, VH; Synthetic 9H1, VL
# B6: 9E12: chicken antibody, VH SEQ ID NO 209, VL SEQ ID NO 231 (antibody, V domains shown)
# VH: AVTLDESGGGLQTPGGGLSLVCKASGFTFSDYGLGWMRQAPGKGLEYVARINSAGSGTYYGSAVDGRATISRDNGQSTVRLQLNNLRAEDTGTYYCTRGGGGASIDGWGHGTEVIVSS
# VL: B4 VL with L12P, G14E, N25S, F27Y, A39S, V47L, S71G, S76T, F87Y, G90S
# modifications: Synthetic 9E12, VH; Synthetic 9E12, VL
# B7: 10E10: chicken antibody, VH SEQ ID NO 212, VL SEQ ID NO 234 (antibody, V domains shown)
# VH: AVTLDESGGGLQTPGGGLSLVCKASGFTFSSYGMGWMRQAPGKGLEFVARINSGGSSYTDYGSAVKGRATISRDDGQSTVRLQLNNLRAEDTGIYYCTRGGGGASIDGWGHGTEVIVSS
# VL: B4 VL with L12P, G14E, F27A, A39S, V45L, N51S, T66L, S71G, S76T
# modifications: Synthetic 10E10, VH; Synthetic 10E10, VL
# B8: 9A5: chicken antibody, VH SEQ ID NO 208, VL SEQ ID NO 230 (antibody, V domains shown)
# VH: AVTLDESGGGLQTPGGAVSLVCKASGFSISDYGMGWMRQAPGKGLQYVARIDHDGRYTDYGAVVKGRATISRDNGQSTVRLQLNNLRAEDTGTYYCTRGGGAASIDTWGHGTEVIVSS
# VL: B4 VL with L12P, G14E, F27V, S29G, P44L, V47L, D57N, S76T, G90S
# modifications: Synthetic 9A5, VH; Synthetic 9A5, VL
# B9: 10H1: chicken antibody, VH SEQ ID NO 211, VL SEQ ID NO 233 (antibody, V domains shown)
# VH: B6 VH with G17A, D31G, L34M, G57D, Y59D, S62A, D65K, G92A, Y95F
# VL: B4 VL with L12P, G14E, F27Y, D57N, T66K, S71G, S76T, R79Q, T95S
# modifications: Synthetic 10H1, VH; Synthetic 10H1, VL
# Target: T1, human BCMA-Fc
# Test: Biacore kinetics, human BCMA-Fc
# Type: binding
# Conditions: 25° C., 1-1 Langmuir model
# Description: Anti-Fab or anti-Fc polyclonal antibodies were immobilized onto a CM5 chip (GE Life Sciences) using amine coupling chemistry (from Amine Coupling Kit, GE Life Sciences). The immobilization steps were carried out at a flow rate of 25 μL/min in 1×HBS-EP+ buffer (GE Life Sciences; 10× Stock diluted before use). The sensor surfaces were activated for 7 min with a mixture of NHS (0.05 M) and EDC (0.2 M). The anti-Fab or anti-Fc antibodies were injected over all 4 flow cells at a concentration of 25 μg/ml in 10 mM sodium acetate, pH 4.5, for 7 min. Ethanolamine (1 M, pH 8.5) was injected for 7 min to block any remaining activated groups. An average of 12,000 response units (RU) of capture antibody was immobilized on each flow cell.
# Off-rate and kinetic binding experiments were performed at 25° C. using 1×HBS-EP+ buffer. Test and control antibodies were injected over the anti-Fab or anti-Fc surface at concentrations of 5-10 μg/mL for 12 seconds at a flow rate of 10 μL/min on flow cells 2, 3 and 4, followed by a buffer wash for 30 seconds at the same flow rate. […]
# The data was fit with the Biacore T200 Evaluation software, using a 1-1 Langmuir binding model. KD (affinity, nM) was determined as a ratio of the kinetic rate constants calculated from the fits of the association and dissociation phases.
Molecule,ka,kd
B1,1.02e+06 M⁻¹ s⁻¹,0.000318 s⁻¹

# Tested on: ARP-1
# Test: Cell killing with drug-conjugated 2° antibody (internalization), ARP-1
# Type: cell-based, human
# Conditions: Conjugate P 2° antibody 20 nM, 72 hrs
# Description: (§1) The internalization of the antibodies was evaluated by drugs conjugated to secondary antibodies in a cell killing assay on BCMA positive cells. BCMA-positive cell lines ARP-1 and U266B1 were used to screen for internalizing leads. Cells were washed twice with calcium and magnesium-free Dulbecco's phosphate-buffered saline (DPBS), harvested with Accutase® (Innovative Cell Technologies; San Diego, Calif.) and counted by the Vi-CELL Cell Viability Analyzers (Beckman Coulter, Brea, Calif.). A total of 12,500 cells in a volume of 25 microliter were seeded in a 384-well flat bottom white polystyrene plate (Greiner Bio-One, Monroe, N.C.) on the day of assay. Lead antibodies were formulated at 4× starting concentration in the cell culture medium and filtered through MultiScreenHTS 96-Well Filter Plates (Millipore; Billerica, Mass.). 12.5 μL of the serial diluted antibody (1:3 serial dilution starting from 100 nM) was added into treatment wells and 12.5 μL of an anti-human nanobody conjugated to according to Conjugate P (hemiasterlin via a cleavable linker) or according to Conjugate M (maytansinoid via a non-cleavable linker) was then added into each well at a fixed final concentration of 20 nM. […] Data was fitted with non-linear regression analysis, using a log(inhibitor) vs. response-variable slope, 4 parameter fit with GraphPad Prism (GraphPad v 5.0, Software; San Diego, Calif.). Data was expressed as relative cell viability (ATP content) % vs. dose of antibody.
row,Molecule,Span (%)
1,B1,83%
2,B2,82%
3,B3,82%
4,B4,87%
5,B5,74%
6,B6,80%
7,B7,46%
8,B8,93%
9,B9,88%

# Same assay, conditions: Conjugate P 2° antibody (hemiasterlin, cleavable linker) 20 nM, 72 hrs
row,Molecule,EC50
1,B1,3.8 nM
2,B2,2.4 nM
3,B3,3.5 nM
4,B4,1 nM
5,B5,1.3 nM
6,B6,1.2 nM
7,B7,3 nM
8,B8,0.7 nM
9,B9,0.86 nM

# Tested on: U266B1
# Test: Cell killing with drug-conjugated 2° antibody (internalization), U266B1
# Type: cell-based, human
# Conditions: Conjugate P 2° antibody 20 nM, 72 hrs
# Description: as §1
Molecule,EC50,Span (%)
B1,1.1 nM,67%
B2,2.3 nM,42%
B3,1.9 nM,63%
B4,0.36 nM,81%
B5,1.1 nM,50%
B6,1.4 nM,47%
B7,2.5 nM,20%
B8,0.29 nM,84%
B9,0.29 nM,89%
